B1: antibody 122-72 (antibody, V domains shown)
VH: EVQLVESGGGLVQPKGSLKLSCAASGFTFNTYAMNWVRQAPGKGLEWVARIRSKSNNYATYYADSVKDRFTISRDDSQSMLYLQMNNLKTEDTAMYYCVAYGSRNYWGQGTTLTVSS
VL: DIVMTQSPSSLTVTAGEKVTMSCKSSQSLLNSGNQKNYLTWYQQKPGQPPKLLIYWASTRESGVPDRFTGSGSGTDFTLTISSVQAEDLAVYYCQNDYSYPYTFGGGTKLEIKR
notes: Mouse IgM, kappa from a hybridoma; tested as hybridoma culture supernatant; Antibody 60-43 is said to have the same CDRs
B2: antibody 55-31 (antibody, mouse IgM, V domains shown)
VH: QVQLQQPGAELVKPGTSVKLSCKASGYNFTSYWINWVKLRPGQGLEWIGDIYPGSGSTNYNEKFKSKATLTVDTSSSTAYMQLSSLASEDSALYYCARSAYRYDWFAYWGQGTLVTVSA
VL: DIQMTQSPASLSVSVGETVTITCRASENIYSNLAWYQQKQGKSPQLLVYAATNLADGVPSRFSGSGSGTQYSLKINSLQSEDFGSYYCQHFWGTPYTFGGGTKLEIKR
notes: Mouse IgM, kappa from a hybridoma; tested as hybridoma culture supernatant
B3: antibody 6-90 (antibody, mouse IgM, V domains shown)
VH: EVELQQFGIEMVKPGASVKISCKASGYIFTDYHMDWVRQSHGKSLEWIGDIDPKYDRVTYNQKFKGKASLTADKSSSTAYMELRSLTSEDTAVYYCAKTGAYGDYLAYWGQGTLVTVSA
VL: DLVMTQTPLSLPVSLGDQASISCRSSQSLVHSDGNTYFYWYLQKPGQSPKLLIYKVSNRFSGVPDRFSAGGSGTYFTLKISRVEAEDLGVYFCSQTTHFPPTFGGGTKLEIKR
notes: as for B2

Target: T1, human transferrin receptor expressed by normal human cells (RBC, PMN, lymphocytes, monocytes, platelets, … (human, UniProt P02786 1-760))
T1 construct: The assay is whole-cell FACS on normal donor cells; also called TfR on normal cells
T1 sequence (P02786 whole entry G142S): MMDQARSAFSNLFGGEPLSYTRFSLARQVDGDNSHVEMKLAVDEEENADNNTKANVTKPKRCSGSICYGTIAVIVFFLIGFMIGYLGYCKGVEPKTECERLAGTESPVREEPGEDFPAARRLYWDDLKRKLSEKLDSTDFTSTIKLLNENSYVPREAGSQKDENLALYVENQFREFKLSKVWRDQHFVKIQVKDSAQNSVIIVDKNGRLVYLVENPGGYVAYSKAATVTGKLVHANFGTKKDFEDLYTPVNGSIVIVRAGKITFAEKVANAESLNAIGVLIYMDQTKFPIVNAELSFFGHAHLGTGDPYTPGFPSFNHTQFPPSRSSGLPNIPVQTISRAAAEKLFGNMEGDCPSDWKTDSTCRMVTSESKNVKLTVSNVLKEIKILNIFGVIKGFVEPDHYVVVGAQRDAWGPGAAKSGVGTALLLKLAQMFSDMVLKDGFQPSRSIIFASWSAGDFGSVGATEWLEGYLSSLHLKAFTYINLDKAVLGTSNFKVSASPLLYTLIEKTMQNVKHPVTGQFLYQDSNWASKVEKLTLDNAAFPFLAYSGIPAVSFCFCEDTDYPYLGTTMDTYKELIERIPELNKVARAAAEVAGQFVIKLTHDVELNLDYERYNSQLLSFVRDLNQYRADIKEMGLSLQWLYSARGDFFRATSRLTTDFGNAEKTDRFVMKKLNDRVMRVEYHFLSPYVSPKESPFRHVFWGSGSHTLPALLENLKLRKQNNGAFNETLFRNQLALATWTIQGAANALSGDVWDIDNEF
Test: FACS, monocytes, donor D005, 1x
Protocol: (§1) Preparation of PBMC and PMN: The whole blood was diluted with an equal volume of PBS and mixed with 1/10 volume of 15% Dextran solution. […] After centrifugation at 2200 rpm for 15 min (rotor: SORVALL, PN11788 and centrifuge: SORVALL, RT7), PBMC concentrated in the interface, were collected and washed with large volumes of FACS buffer (2% FBS in PBS) for future use. The PMN-rich pellet was collected, from which residual RBC was removed by hypotonic lysis in 0.2% NaCl.
(§2) 1×10⁵ cells were seeded in each well of a v-bottomed 96-well plate and incubated with 50 μl of hybridoma culture supernatant at 1× and 10× dilution, or isotype control antibody mouse IgM, κ (BD™, Cat. No. 557275) at concentration of 1 μg/ml. A 300× dilution of human cell hyper-immune serum was used as binding positive control for all cell types. PE-conjugated anti-human CD41a (Southern Biotech™, Cat. No. 9391-09) was used as a positive control for staining human platelets. Anti-sialyl Lewis x antibody (Millipore™, Cat. No. MAB2096) was used as a positive control for staining human PMN. Anti-human CD31 (Hycult™, Cat. No. HM2039) was used as a positive control for staining HUVEC. After 30 minutes incubation at 4° C., cells were washed twice with 200 μl FACS buffer (1×PBS containing 1% FBS), stained with 50 μl of 1 μg/ml goat F(ab′)2-anti-mouse IgG(H+L)-PE (Southern Biotech™, Cat. No. 1032-09) or 1 μg/ml goat F(ab′)2-anti-mouse IgM(H+L)-PE (Southern Biotech™, Cat. No. 1022-09) in FACS buffer. After 30 minutes of incubation at 4° C., cells were washed twice with FACS buffer and analyzed by flow cytometry (BD LSR, BD Life Sciences).

Binder	% positive cell binding [%]
B1	2
B2	4
B3	2

Target: T1, human transferrin receptor expressed by …
Test: FACS, RBC, donor D005, 1/10x
Protocol: (§3) The hyper-immuned serum (Hyp-serum) or the corresponding cell marker antibodies for certain cell types were included as positive controls.
as §2

Binder	% positive cell binding [%]
B1	< 1
B2	< 1
B3	< 1

Target: T1, human transferrin receptor expressed by …
Test: FACS, lymphocytes, donor D005, 1/10x
Protocol: as §1, §2

Binder	% positive cell binding [%]
B1	1
B2	2
B3	3

Target: T1, human transferrin receptor expressed by …
Test: FACS, HUVEC, 1/10x
Protocol: as §3, §2

Binder	% positive cell binding [%]
B1	1
B2	3
B3	1

Target: human transferrin receptor expressed by nonhematopoietic cancer cells (human) (UniProt P02786)
Sequence (P02786 whole entry G142S): as above
Test: FACS, Kato III cells, 1/5X

Binder	MFI [MFI]
B1	724
B2	97
B3	1250

Target: T1, human transferrin receptor expressed by …
Test: FACS, lymphocytes, donor D014, 1/10x
Protocol: as §1, §2

Binder	% positive cell binding [%]
B1	1
B2	1
B3	1

Target: T1, human transferrin receptor expressed by …
Test: FACS, monocytes, donor D014, 1/10x
Protocol: as §1, §2

Binder	% positive cell binding [%]
B1	1
B2	< 1
B3	< 1

Target: T1, human transferrin receptor expressed by …
Test: FACS, lymphocytes, donor D005, 1x
Protocol: as §3, §2

Binder	% positive cell binding [%]
B1	< 1
B2	< 1
B3	< 1

Target: human transferrin receptor expressed by nonhematopoietic cancer cells (human) (UniProt P02786)
Test: FACS, HEC-1-A cells, 1/5X

Binder	MFI [MFI]
B1	15
B2	1240
B3	11

Target: human transferrin receptor expressed by nonhematopoietic cancer cells (human) (UniProt P02786)
Test: FACS, Panc02.03B cells, 1/5X

Binder	MFI [MFI]
B1	4670
B2	314
B3	4910

Target: T1, human transferrin receptor expressed by …
Test: FACS, monocytes, donor D005, 1/10x
Protocol: as §1, §2

Binder	% positive cell binding [%]
B1	4
B2	3
B3	4

Target: human transferrin receptor expressed by nonhematopoietic cancer cells (human) (UniProt P02786)
Test: FACS, SU.86.86 cells, 1/5X

Binder	MFI [MFI]
B1	4600
B2	96
B3	2940

Target: T1, human transferrin receptor expressed by …
Test: FACS, monocytes, donor D016, 1x
Protocol: as §3, §2

Binder	% positive cell binding [%]
B1	< 1
B2	1
B3	< 1

Target: T1, human transferrin receptor expressed by …
Test: FACS, RBC, donor D016, 1x
Protocol: as §3, §2

Binder	% positive cell binding [%]
B1	1
B2	1
B3	1

Target: human transferrin receptor expressed by nonhematopoietic cancer cells (human) (UniProt P02786)
Test: FACS, H358 cells, 1X

Binder	MFI [MFI]
B1	942
B2	234
B3	823

Target: T1, human transferrin receptor expressed by …
Test: FACS, lymphocytes, donor D102, 1x
Protocol: as §1, §2

Binder	% positive cell binding [%]
B1	< 1
B2	< 1
B3	< 1

Target: human transferrin receptor expressed by nonhematopoietic cancer cells (human) (UniProt P02786)
Test: FACS, DLD-1 cells, 1/5X

Binder	MFI [MFI]
B1	2690
B2	104
B3	3900

Target: T1, human transferrin receptor expressed by …
Test: FACS, platelets, donor D005, 1/10x
Protocol: as §3, §2

Binder	% positive cell binding [%]
B1	< 1
B2	< 1
B3	< 1

Target: T1, human transferrin receptor expressed by …
Test: FACS, platelets, donor D102, 1x
Protocol: as §3, §2

Binder	% positive cell binding [%]
B1	< 1
B2	< 1
B3	< 1

Target: T1, human transferrin receptor expressed by …
Test: FACS, HUVEC, 1x
Protocol: as §3, §2

Binder	% positive cell binding [%]
B1	1
B2	2
B3	1
